Molecular target: SARS-CoV-2 Wild-type (D614G) spike glycoprotein (SARS-CoV-2) (UniProt P0DTC2)
Test: cell-based or functional assay

Chain of VYD222 (antibody) (VH): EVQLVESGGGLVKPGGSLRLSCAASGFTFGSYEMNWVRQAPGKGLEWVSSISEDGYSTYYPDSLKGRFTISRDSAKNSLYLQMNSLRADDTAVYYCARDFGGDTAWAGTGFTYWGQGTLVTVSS
Chain of VYD222 (antibody) (VL): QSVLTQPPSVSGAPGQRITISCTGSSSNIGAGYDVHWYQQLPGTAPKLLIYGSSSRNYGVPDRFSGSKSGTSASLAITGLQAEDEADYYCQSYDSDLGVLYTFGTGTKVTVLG
Chain of VYD224 (antibody) (VH): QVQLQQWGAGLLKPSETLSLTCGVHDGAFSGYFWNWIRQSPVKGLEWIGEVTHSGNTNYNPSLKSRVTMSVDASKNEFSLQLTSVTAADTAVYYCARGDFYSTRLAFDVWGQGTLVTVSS
Chain of VYD224 (antibody) (VL): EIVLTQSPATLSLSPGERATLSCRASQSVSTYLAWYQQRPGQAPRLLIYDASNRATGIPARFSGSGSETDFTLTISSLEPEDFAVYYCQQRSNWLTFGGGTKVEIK
Chain of ADI-58125 (antibody) (VH): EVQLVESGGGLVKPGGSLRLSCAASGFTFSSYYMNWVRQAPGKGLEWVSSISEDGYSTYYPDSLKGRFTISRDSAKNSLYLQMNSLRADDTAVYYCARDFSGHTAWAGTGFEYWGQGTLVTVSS
Chain of ADI-58125 (antibody) (VL): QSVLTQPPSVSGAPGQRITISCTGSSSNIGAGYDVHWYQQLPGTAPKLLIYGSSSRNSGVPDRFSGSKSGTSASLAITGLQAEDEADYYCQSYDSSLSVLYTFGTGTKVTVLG
Chain of VYD223 (antibody) (VH): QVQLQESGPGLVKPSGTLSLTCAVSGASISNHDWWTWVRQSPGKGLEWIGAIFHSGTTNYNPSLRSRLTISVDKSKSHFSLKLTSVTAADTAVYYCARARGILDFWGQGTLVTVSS
Chain of VYD223 (antibody) (VL): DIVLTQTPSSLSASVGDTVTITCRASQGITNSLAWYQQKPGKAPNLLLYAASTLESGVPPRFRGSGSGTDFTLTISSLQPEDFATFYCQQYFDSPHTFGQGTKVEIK

Substance | IC50, authentic virus neutralization | IC50, lentivirus-based pseudovirus neutralization | IC90, authentic virus neutralization
VYD224 (antibody) | 0.01 µg/mL | 0.03 µg/mL | 0.037 µg/mL
LY-CoV1404 (antibody) | 0.021 µg/mL | – | 0.09 µg/mL
ADI-58125 (antibody) | 0.052 µg/mL | – | 0.192 µg/mL
VYD223 (antibody) | 0.012 µg/mL | – | 0.014 µg/mL
VYD222 (antibody) | 0.033 µg/mL | 0.03 µg/mL | 0.193 µg/mL
CoV2-2130 (antibody) | 0.016 µg/mL | – | 0.074 µg/mL

Reference: US20260078171A1
